Source: paper PMC2621343, “Ca^2+ Extrusion by NCX Is Compromised in Olfactory Sensory Neurons of OMP^−/− Mice” (PLoS ONE, 2009)

T1: recombinant rat OMP (olfactory marker protein) (rat, UniProt P08523 1-163)
T1 construct: olfactory marker protein, rat, recombinant
T1 sequence (looked up): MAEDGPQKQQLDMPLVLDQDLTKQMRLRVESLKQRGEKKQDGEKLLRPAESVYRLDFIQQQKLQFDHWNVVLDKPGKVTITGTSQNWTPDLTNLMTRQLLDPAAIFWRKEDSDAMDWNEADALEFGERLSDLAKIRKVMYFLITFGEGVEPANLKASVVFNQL


How the values were obtained:
Details in all cases: both partners purified
[1] = target: T1, recombinant rat OMP (olfactory marker …); assay: SPR; data not shown; peptide immobilised on CM5 chip; OMP flowed over (0-500 nM by the methods), running buffer in the absence or presence of 0.1 mM Ca2+; interaction Ca2+-independent
[2] = target: T2, Bovine calmodulin (bovine, UniProt P62157 1-149); assay: SPR; XIP peptide immobilised on CM5 chip (about 700 RU, carbodiimide chemistry); CaM 10, 25, 50, 100, 250 nM flowed over; Biacore 3000; running buffer NaCl 150 mM, HEPES 10 mM, CaCl2 0.1 mM, pH 7.4; 5 µl/min for 2 minutes; 1:1 Langmuir binding model
T2 construct: calmodulin, bovine, purchased from Sigma; the methods say bovine calmodulin purchased from Sigma; also called CaM; recombinant calmodulin (CaM); source: bought: Sigma

[3] = target: T2, Bovine calmodulin; assay: SPR; Bex1 (50-75) peptide immobilised on CM5 chip; CaM 31.25, 62.5, 125, 250, 500 nM flowed over; running buffer with 0.1 mM Ca2+; steady-state analysis of equilibrium response, nonlinear 1:1 binding isotherm

Kd [1] [nM] | Kd [2] [nM] | Kd [3] [nM] | Binder
700 | 20 ± 6 |  | RRLLFYKYVYKRYRAGKQRGM (Immobilised on a CM5 chip by carbodiimide chemistry; also called XIP regulatory-peptide of NCX; source: synthetic peptide, HPLC purified) [XIP peptide (NCX1 251-271)]
90000 ± 12000 |  | 280 | RGGRRRFRVRQPIAHYRWDLMQRVGE (Immobilised on a CM5 chip by carbodiimide chemistry; also called Bex1 peptide; Bex1 (50–75) peptide; source: synthetic peptide, HPLC purified) [CaM binding peptide of Bex1 (Bex1 50-75)]
